Assay results published in paper doi:10.1101/758698.

Columns and labels:
Test in all cases: fluorescence polarization
hBrr2T1 = hBrr2T1 (human, UniProt O75643 395-2129)
hBrr2T1-SS-linear = hBrr2T1-SS-linear (human, UniProt O75643 395-2129, M641C;A1582C)
hBrr2T1-SS-rot+ = hBrr2T1-SS-rot+ (human, UniProt O75643 395-2129, D534C;N1866C)

Measured: binding result

Sequence of hBrr2T1-SS-linear (O75643 395-2129 M641C/A1582C): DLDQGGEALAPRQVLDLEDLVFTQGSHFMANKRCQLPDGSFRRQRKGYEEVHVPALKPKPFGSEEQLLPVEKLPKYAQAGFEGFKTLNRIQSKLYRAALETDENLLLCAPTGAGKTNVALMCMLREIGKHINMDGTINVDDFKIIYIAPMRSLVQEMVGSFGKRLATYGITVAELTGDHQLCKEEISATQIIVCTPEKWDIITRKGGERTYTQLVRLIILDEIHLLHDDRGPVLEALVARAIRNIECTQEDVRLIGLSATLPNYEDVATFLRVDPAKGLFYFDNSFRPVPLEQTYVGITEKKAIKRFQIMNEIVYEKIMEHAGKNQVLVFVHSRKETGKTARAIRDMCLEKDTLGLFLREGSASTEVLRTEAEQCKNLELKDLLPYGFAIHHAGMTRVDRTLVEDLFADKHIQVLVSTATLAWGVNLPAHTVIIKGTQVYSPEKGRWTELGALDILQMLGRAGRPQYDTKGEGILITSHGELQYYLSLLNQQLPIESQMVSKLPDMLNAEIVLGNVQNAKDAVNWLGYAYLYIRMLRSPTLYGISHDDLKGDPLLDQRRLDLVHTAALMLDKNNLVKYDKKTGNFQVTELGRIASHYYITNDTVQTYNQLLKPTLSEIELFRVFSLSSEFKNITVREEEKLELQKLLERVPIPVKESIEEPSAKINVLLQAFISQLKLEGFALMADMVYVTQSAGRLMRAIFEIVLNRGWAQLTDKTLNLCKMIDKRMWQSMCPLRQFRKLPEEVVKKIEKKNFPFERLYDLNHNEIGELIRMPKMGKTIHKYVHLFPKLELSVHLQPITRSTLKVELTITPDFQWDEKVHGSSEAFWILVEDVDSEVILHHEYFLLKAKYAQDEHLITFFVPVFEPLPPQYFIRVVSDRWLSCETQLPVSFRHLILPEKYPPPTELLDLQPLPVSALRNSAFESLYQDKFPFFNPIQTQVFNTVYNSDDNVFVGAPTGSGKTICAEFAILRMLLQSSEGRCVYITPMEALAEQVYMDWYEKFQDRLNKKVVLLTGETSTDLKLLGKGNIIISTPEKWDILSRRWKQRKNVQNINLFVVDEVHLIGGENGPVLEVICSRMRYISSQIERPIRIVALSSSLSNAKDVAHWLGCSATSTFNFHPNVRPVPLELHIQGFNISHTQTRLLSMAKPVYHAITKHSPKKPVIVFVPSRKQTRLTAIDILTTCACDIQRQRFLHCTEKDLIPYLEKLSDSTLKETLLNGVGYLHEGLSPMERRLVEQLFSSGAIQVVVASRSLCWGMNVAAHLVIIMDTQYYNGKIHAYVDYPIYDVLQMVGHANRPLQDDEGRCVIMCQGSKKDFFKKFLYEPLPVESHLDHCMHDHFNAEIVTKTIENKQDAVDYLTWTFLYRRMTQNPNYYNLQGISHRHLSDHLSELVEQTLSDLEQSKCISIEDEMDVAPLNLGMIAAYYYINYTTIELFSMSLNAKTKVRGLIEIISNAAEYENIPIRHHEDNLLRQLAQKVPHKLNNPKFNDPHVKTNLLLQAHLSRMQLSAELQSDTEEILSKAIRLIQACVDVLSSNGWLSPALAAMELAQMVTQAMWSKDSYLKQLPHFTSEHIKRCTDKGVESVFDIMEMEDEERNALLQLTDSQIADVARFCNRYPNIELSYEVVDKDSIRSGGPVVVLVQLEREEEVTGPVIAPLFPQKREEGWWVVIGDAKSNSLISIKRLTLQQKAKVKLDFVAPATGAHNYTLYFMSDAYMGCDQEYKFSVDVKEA
Sequence of hBrr2T1-SS-rot+ (O75643 395-2129 D534C/N1866C): as the sequence (O75643 395-2129 M641C/A1582C) above, with D140C, C247M, C1188A, N1472C counted along it
Sequence of hBrr2T1 (O75643 395-2129): as the sequence (O75643 395-2129 M641C/A1582C) above, with C247M, C1188A counted along it

B1: RNA duplex with 3' ss overhang (dsRNA)
RNA 1: CGCGUGCUGGUCGAAAUUUAAUUAUAAACCAGACCGUC
RNA 2: GACCAGCACGCG
binds: all assays above
